Biological target: Recombinant His-tagged SF2/ASF (rSF2/ASF) (UniProt Q07955)
Sequence (Q07955 whole entry): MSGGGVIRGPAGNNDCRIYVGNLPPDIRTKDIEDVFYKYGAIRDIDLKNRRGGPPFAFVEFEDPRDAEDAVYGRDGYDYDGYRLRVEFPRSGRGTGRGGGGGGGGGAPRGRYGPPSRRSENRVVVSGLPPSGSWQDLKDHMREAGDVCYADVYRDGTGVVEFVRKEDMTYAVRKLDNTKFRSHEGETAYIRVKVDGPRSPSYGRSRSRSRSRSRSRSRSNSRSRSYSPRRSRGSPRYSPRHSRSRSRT

Sequence of Glutathione S-transferase-tagged mClk1/Sty (recombinant Clk1/Sty) (chain, as listed by the source): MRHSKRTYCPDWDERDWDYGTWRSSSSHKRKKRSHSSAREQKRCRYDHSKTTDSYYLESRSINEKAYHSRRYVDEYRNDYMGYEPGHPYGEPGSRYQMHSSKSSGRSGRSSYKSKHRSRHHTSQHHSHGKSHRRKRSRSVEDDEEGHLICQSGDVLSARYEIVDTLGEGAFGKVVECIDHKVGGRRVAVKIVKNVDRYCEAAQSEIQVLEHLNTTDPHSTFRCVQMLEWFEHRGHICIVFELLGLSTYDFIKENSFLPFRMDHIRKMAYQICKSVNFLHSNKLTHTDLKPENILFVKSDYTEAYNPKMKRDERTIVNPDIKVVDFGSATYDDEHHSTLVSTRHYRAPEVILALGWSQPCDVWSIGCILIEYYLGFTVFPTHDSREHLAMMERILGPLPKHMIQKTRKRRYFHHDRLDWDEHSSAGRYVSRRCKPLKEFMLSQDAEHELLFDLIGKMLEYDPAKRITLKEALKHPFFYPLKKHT

**Q.** With “Glutathione S-transferase-tagged mClk1/Sty (recombinant Clk1/Sty)” as the substance, how does the “electrophoretic mobility of rSF2/ASF on SDS-PAGE / Western blot with AK103 (phosphorylation state)” value read?
**A.** rSF2/ASF exhibited reduced electrophoretic mobility in the presence of Clk 1/Sty (FIG. 2A, lane 2) compared with the rSF2/ASF alone

From patent US20050171026
